Experimental data taken from article PMC7190724, “Improved GPCR ligands from nanobody tethering” (Nature Communications, 2020).
Each block holds one binder with its values, some of them ahead of it.

How the values were obtained:
[1] = biological target: each of the PTHR1 receptor constructs that retained the ECD; experiment: flow cytometry on cells; dose response of staining with VHH-Alexafluor647 (median fluorescent intensity); cells in PBS, 1 h on ice; curves without plateau constrained to the plateau seen with other VHHs
[2] = biological target: PTHR1_(YFPΔECD); experiment: as above

EC50 [1]: 100 to 200 nM
B1: VHH_(PTHR) (VHH)
VHH: EVQLVESGGGLVQAGGSLRLSCAASGNIFANNIMGWYRQPPGKEREFVAHVSHDGDSMYAVSVKGRFAISRKDATNLYLQMNSLKPEDTAIYFCRLLNIPTQGRMEGFWGQGTQVTVSS

EC50 [2]: < 10 nM
B2: VHHGFP (VHH)
VHH: QVQLQESGGALVQPGGSLRLSCAASGFPVNRYSMRWYRQAPGKEREWVAGMSSAGDRSSYEDSVKGRFTISRDDARNTVYLQMNSLKPEDTAVYYCNVNVGFEYWGQGTQVTVSS
